What was measured:
HLA-B*40:02 [1] = assay: IEDB peptide-MHC binding, purified MHC/competitive/radioactivity; ≥ and ≤ were set here for values at or beyond the usual limits of such assays
HLA-B*44:03 = assay: as above
HLA-B*40:01 [2] = assay: as above
HLA-B*45:01 [3] = assay: as above
HLA-B*44:02 = assay: as above
HLA-B*18:01 [4] = assay: IEDB peptide-MHC binding, purified MHC/competitive/radioactivity; filed as Kd, often an IC50 or EC50 that approximates it; ≥ and ≤ were set here for values at or beyond the usual limits of such assays; settings: source organism: Hepatitis B virus
HLA-B*18:01 [5] = assay: IEDB peptide-MHC binding, purified MHC/competitive/radioactivity; ≥ and ≤ were set here for values at or beyond the usual limits of such assays
HLA-B*45:01 [6] = assay: IEDB peptide-MHC binding, purified MHC/competitive/radioactivity; filed as Kd, often an IC50 or EC50 that approximates it; ≥ and ≤ were set here for values at or beyond the usual limits of such assays
HLA-B*40:02 [7] = assay: as above; settings: source organism: Plasmodium falciparum
HLA-B*40:01 [8] = assay: as above; settings: source organism: Hepatitis B virus
[9] = source organism: Hepatitis C virus (isolate HCV-K3a/650)
[10] = source organism: Hepatitis B virus
[11] = source organism: Human immunodeficiency virus 1
[12] = source organism: Plasmodium falciparum

Sequence AEAALENLV has an IC50 (HLA-B*40:02 [1]; [9]) of 107 nM, an IC50 (HLA-B*44:03; [9]) of 309 nM and an IC50 (HLA-B*40:01 [2]; [9]) of 245 nM. For the same sequence, the IC50 (HLA-B*45:01 [3]; [9]) was 35 nM.

AELLAACF was tested, and the IC50 (HLA-B*40:02 [1]; [10]) was 93 nM, the IC50 (HLA-B*44:03; [10]) was 27 nM and the IC50 (HLA-B*40:01 [2]; [10]) was 734 nM. It also gave an IC50 (HLA-B*44:02; [10]) of 9.3 nM and an IC50 (HLA-B*45:01 [3]; [10]) of 247 nM.

Work on AELLAACFA yielded an IC50 (HLA-B*40:02 [1]; [10]) of 50 nM, an IC50 (HLA-B*44:03; [10]) of 59 nM and an IC50 (HLA-B*40:01 [2]; [10]) of 585 nM. For the same sequence, the IC50 (HLA-B*44:02; [10]) was 332 nM, the IC50 (HLA-B*45:01 [3]; [10]) was 6.6 nM and the Kd (HLA-B*18:01 [4]) was 13500 nM.

For AENLWVTVY, the IC50 (HLA-B*40:02 [1]; [11]) was 90 nM, the IC50 (HLA-B*18:01 [5]; [11]) was 51 nM and the IC50 (HLA-B*44:03; [11]) was 160 nM. It also gave an IC50 (HLA-B*40:01 [2]; [11]) of 3370 nM, an IC50 (HLA-B*44:02; [11]) of 66 nM and an IC50 (HLA-B*45:01 [3]; [11]) of 68 nM.

AENLYVTVF was tested, and the IC50 (HLA-B*40:02 [1]; [11]) was 3.1 nM, the IC50 (HLA-B*44:03; [11]) was 47 nM and the IC50 (HLA-B*40:01 [2]; [11]) was 17 nM. For the same sequence, the IC50 (HLA-B*44:02; [11]) was 39 nM and the IC50 (HLA-B*45:01 [3]; [11]) was 69 nM.

DEFKPIVQY gave an IC50 (HLA-B*18:01 [5]; [12]) of 3.9 nM, an IC50 (HLA-B*44:03; [12]) of 401 nM and an IC50 (HLA-B*44:02; [12]) of 12 nM.

In the case of DEVDLYLLM, the IC50 (HLA-B*40:02 [1]; [12]) is reported as 1020 nM, the IC50 (HLA-B*18:01 [5]; [12]) is reported as 17 nM and the IC50 (HLA-B*44:03; [12]) is reported as 84 nM. The IC50 (HLA-B*40:01 [2]; [12]) was 2920 nM and the IC50 (HLA-B*44:02; [12]) was 107 nM.

For GEIPFYGKAI, the IC50 (HLA-B*40:02 [1]; [9]) was 87 nM, the IC50 (HLA-B*44:03; [9]) was 113 nM and the IC50 (HLA-B*40:01 [2]; [9]) was 146 nM. The Kd (HLA-B*45:01 [6]; [9]) was 5400 nM.

With IEAEVIPA the IC50 (HLA-B*40:02 [1]; [11]) was 62 nM, the IC50 (HLA-B*18:01 [5]; [11]) was 61 nM and the IC50 (HLA-B*44:03; [11]) was 6400 nM. It also gave an IC50 (HLA-B*40:01 [2]; [11]) of 5950 nM, an IC50 (HLA-B*44:02; [11]) of 859 nM and a Kd (HLA-B*45:01 [6]; [11]) of 347 nM.

NELNYDNAGI was tested, and the IC50 (HLA-B*18:01 [5]; [12]) was 4610 nM, the IC50 (HLA-B*44:03; [12]) was 72 nM and the IC50 (HLA-B*40:01 [2]; [12]) was 4130 nM. It also gave an IC50 (HLA-B*44:02; [12]) of 105 nM, an IC50 (HLA-B*45:01 [3]; [12]) of 457 nM and a Kd (HLA-B*40:02 [7]) of no less than 23600 nM.

In the case of NETPGIRYQY, the IC50 (HLA-B*40:02 [1]; [11]) is reported as no less than 20000 nM, the IC50 (HLA-B*18:01 [5]; [11]) is reported as 179 nM and the IC50 (HLA-B*44:03; [11]) is reported as 62 nM. For the same sequence, the IC50 (HLA-B*40:01 [2]; [11]) was no less than 20000 nM, the IC50 (HLA-B*44:02; [11]) was 75 nM and the Kd (HLA-B*45:01 [6]; [11]) was 10600 nM.

For QEILDLWVY, the IC50 (HLA-B*40:02 [1]; [11]) was 4520 nM, the IC50 (HLA-B*18:01 [5]; [11]) was 52 nM and the IC50 (HLA-B*44:03; [11]) was 172 nM. It also gave an IC50 (HLA-B*40:01 [2]; [11]) of 739 nM, an IC50 (HLA-B*44:02; [11]) of 264 nM and a Kd (HLA-B*45:01 [6]; [11]) of 6260 nM.

Work on RENANQLVV yielded an IC50 (HLA-B*40:02 [1]; [12]) of 20 nM, an IC50 (HLA-B*18:01 [5]; [12]) of 757 nM and an IC50 (HLA-B*44:03; [12]) of 480 nM. The IC50 (HLA-B*40:01 [2]; [12]) was 174 nM, the IC50 (HLA-B*44:02; [12]) was 638 nM and the IC50 (HLA-B*45:01 [3]; [12]) was 37 nM.

RETVLEYLV was tested, and the IC50 (HLA-B*40:02 [1]; [10]) was 36 nM, the IC50 (HLA-B*44:03; [10]) was 4830 nM and the IC50 (HLA-B*40:01 [2]; [10]) was 412 nM. For the same sequence, the IC50 (HLA-B*45:01 [3]; [10]) was 205 nM.

Work on SENERGYYI yielded an IC50 (HLA-B*40:02 [1]; [12]) of 227 nM, an IC50 (HLA-B*18:01 [5]; [12]) of 301 nM and an IC50 (HLA-B*44:03; [12]) of 91 nM. For the same sequence, the IC50 (HLA-B*40:01 [2]; [12]) was 3730 nM, the IC50 (HLA-B*44:02; [12]) was 150 nM and the IC50 (HLA-B*45:01 [3]; [12]) was 336 nM.

TERQANFL showed an IC50 (HLA-B*40:02 [1]; [11]) of 23 nM, an IC50 (HLA-B*18:01 [5]; [11]) of 304 nM and an IC50 (HLA-B*44:03; [11]) of 2210 nM. The IC50 (HLA-B*40:01 [2]; [11]) was 223 nM, the IC50 (HLA-B*44:02; [11]) was 9050 nM and the Kd (HLA-B*45:01 [6]; [11]) was 9720 nM.

In the case of VELLSFLPSDF, the IC50 (HLA-B*40:02 [1]; [10]) is reported as 480 nM, the IC50 (HLA-B*18:01 [5]; [10]) is reported as 414 nM and the IC50 (HLA-B*44:03; [10]) is reported as 412 nM. The IC50 (HLA-B*44:02; [10]) was 299 nM, the Kd (HLA-B*40:01 [8]) was 5560 nM and the Kd (HLA-B*45:01 [6]; [10]) was 10400 nM.

For WEFVNTPPL, the IC50 (HLA-B*40:02 [1]; [11]) was 8.6 nM, the IC50 (HLA-B*18:01 [5]; [11]) was 5.9 nM and the IC50 (HLA-B*44:03; [11]) was 378 nM. The IC50 (HLA-B*40:01 [2]; [11]) was 2.5 nM, the IC50 (HLA-B*44:02; [11]) was 72 nM and the Kd (HLA-B*45:01 [6]; [11]) was 5210 nM.

Reference: the Immune Epitope Database (IEDB)
